The assay deals with T1, CD20 (human, UniProt P11836 1-297).
T1 sequence (looked up): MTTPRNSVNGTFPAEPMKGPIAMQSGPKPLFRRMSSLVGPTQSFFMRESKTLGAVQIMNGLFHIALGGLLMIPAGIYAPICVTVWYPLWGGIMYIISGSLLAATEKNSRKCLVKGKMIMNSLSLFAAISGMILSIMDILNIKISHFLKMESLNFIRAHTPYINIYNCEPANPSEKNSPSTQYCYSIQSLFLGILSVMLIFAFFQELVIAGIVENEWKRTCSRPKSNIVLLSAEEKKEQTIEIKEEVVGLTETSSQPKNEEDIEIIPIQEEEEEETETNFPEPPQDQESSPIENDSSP
Description: cell-based or functional assay.

B1: veltuzumab (antibody, V domains shown)
VH: QVQLQQSGAEVKKPGSSVKVSCKASGYTFTSYNMHWVKQAPGQGLEWIGAIYPGMGDTSYNQKFKGKATLTADESTNTAYMELSSLRSEDTAFYYCARSTYYGGDWYFDVWGQGTTVTVSS
VL: DIQLTQSPSSLSASVGDRVTMTCRASSSVSYIHWFQQKPGKAPKPWIYATSNLASGVPVRFSGSGSGTDYTFTISSLQPEDIATYYCQQWTSNPPTFGGGTKLEIK
Regarding B1, the “EC50, in vitro proliferation of Jeko-1 cells” value was 1.5 nM.

For the origin of these results see patent US20110020273A1 (published 2011).
